Experimental data taken from the nanobody polyreactivity screen of Harvey et al. (2022).

Assay: yeast display, Sf9 membrane polyspecificity reagent, FACS + sequencing; frameworks hold sequencing errors
Procedure, shortened: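 Genes from sorted yeast were amplified by colony PCR, read by MiSeq 2 × 250 sequencing and filtered on CDR length. These cells carried a synthetic nanobody library in Saccharomyces cerevisiae BJ5465 and were sorted by FACS into low and high (top ~1%) gates on anti-HA and streptavidin fluorescence. Polyreactivity is labelled according to the gate of origin.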

Row | Sequence | polyreactivity (PSR sort gate)
1 | QVQLVESAGGLVQAGVSLRLSCAASGRTFYWYTMGWYRQAPGKERELVAAISSAGSTYYADSVKGRFTISRDNAKNTVYLQMNSLKPEDTAVYSCAAGSHSGRAYYYWGQGTQVTVSS | high polyreactivity
2 | QVQLVESGGGLVQAGGSLRLSCAASGLTLSYNAMGWYRQAPGKERELVAAIRSGGSTNYADSVKGRFTISRDNAKNTVYLQMNSLKPVDTAVYYCAARFRYLPYRYGRYQSGYEYWGQGTQVTVSS | high polyreactivity
3 | QGHLVESWGGLVQAGGSLRLSCAASGSIFKDNAMGWYRQAPGKERELVAAITWSGGSTYYADSVKGRFTSSRDNANNTVYLQMNSLKAEDTAVDRYKYDYWGQGTQVTVSS | low polyreactivity
4 | QVQLVESGGGLVQAGGSLRLSGAAKGSTFRQYAMGWYRQATGKERELVAAISSGGRTNYPDSVKGRFTISRDNAKNTVYFHMNSQKPVDTAVYYSAARFYFQFRRFRRMDYWGQGTQVTVSS | high polyreactivity
5 | QVQLVESGGGLVQAGGSLRLICAASGSTFTGYAMGWYRQAPGKERELVAAINWRGGTTYYADSVKGRFTISRDNAKNTVYLQMNSLKPEDTAVYYCNKYRISGLSKFYYWGQGTQVTVSS | high polyreactivity
6 | QVQLVESCGGLVQAGGSLRLSCAASGSTFTPNAMGWNRQAPGKERELVAAIRGLNGRTYYADSVKGRFTISRDNAKNTVYLQMNSLKPEDTAVYYCAAGGYSYYFAWHDYWGQGTQVTVSS | low polyreactivity
7 | QVQLVESGGGLVQAGGSLRLSCAASGSIFVANAMGWYRQAPGKETELVAAISQDGGTKYYADSVKGRFTISRDNAKNTVYLQMNSLKPEDTAVYYSAAEYPSFPEDDEYDYWGQGTQVTVSS | low polyreactivity
8 | QVQLVESAAVLVQAGGRLRLSCADSGRIFTDNGMGWYRQAPGKERELVAAISESGGSTYYADSVKGRFTISRDNAKNTVYLQMNSLKPEDTAVYYCAADLYWYGYHYDYWGQGTQVTVSS | low polyreactivity
9 | QVQLVESGGGLVQAGGSLRLSGAASGRNFSTNAMGWYRPAPGKERELVAAITSGGNTYADSVKGRFTISRDNAKNTVYLQMNSLKPEDTAVYYCAARLYWGRYNYWGQGTQVTVSS | high polyreactivity
10 | QVQLVESGGGLDQAGGSHRLSCAASGRIFYIYTMGWYRQPPGKEREFVAGINWNGGSTYYADSVKGRFTISRDNAKNTVYLQMNSLKPEVTAVYYCNADQYWDRYYYWGQGTQVTVSS | low polyreactivity
11 | QVQLVETGGGLVQAGGSLRLSCAASGFTFYGYAMGWYRQAPGKERELVAAISSSGGRTYYADSVKGRFTISRDNAKNTVYLQMNSLKPEDTAVYYCAVDYYGKVGDDYLGQGTQVTVSS | low polyreactivity
12 | QVQLVESGGGLVQAGGSLRLSCAASGFTFGSYAMGWYRQAPGKDRELVARISSDGSTNYADSVKGRFTISRDYAKNTVYLQMNSLKPEDTAVYYCAVRHRYTRAYWGRDYWGQGTQVTVSS | low polyreactivity
13 | QVQLVESGGGLVQAGGSLRLSCAASGRTFYYAMGWYRQAPGKERYADSVKGRVTISRDNAKNTVYLQMNSLKPEETAVYYCAAKVPEPPSLDESDYWGQGTQVTVSS | low polyreactivity
14 | QVHLQESGVVLMQARGNLRMSCAASGYISTQYHMDWYRQAPGKERELVARIDYGAITNYADSVKGRFTIRRDNAKNTVYLQMTSLKPEDTAVYYCAVYSGDDYYHDYWGHGTQVTVSS | low polyreactivity
15 | QVQLVESGGGLVQAGGSLRLSCAASGSTFTINVMGSYRQAPGKERELVAAINGGGRTNYADSVKGRFTISRDNAKNTVYLQMNSLKPEDTAVYYCAADGLSNVRQMDYWGQGTQVTVSS | low polyreactivity
16 | QVQLVESGGGLVQAGGSLRLSCAASGSIFSYNAMGWYRQATGKERELVARITRGGDGTYYADSVKGRFTISRDNAKNTVYLQMNSLKPEDTAVYYCAATPYWYHLRVEGGYWGQGTQVTVSS | low polyreactivity
17 | QVQLVESGGGLVQAGGSLRLICAASGFTLGSNAMGWYRQAPGKERELVAAMSKSGGSTYYADSVKGRFTISRDNAKNTVYLQMNSLKPEDTAVYYCAARYLYQGYRYDYWGQGTQVTVSS | high polyreactivity
